Measured values as given in patent publication US20260216095A1, “NANOSHEET-HYDROGEL COMPOSITES AND METHODS OF US” (Rutgers, The State University of New Jersey, priority 2023, published 2026).

Tested on: aggrecan (ACAN)
Experiment: Rat nucleotomy model, immunohistochemistry for aggrecan
Format: in vivo, Sprague-Dawley rats
Settings: six weeks
Description: Animal Model Nucleotomy: In total, eight-weeks-old female Sprague-Dawley rats (220-240 g) were purchased from Orient Bio Inc., Korea, and were acclimatized for a week at a life/dark cycle of 12/12 h (temperature; 22±1° C. and relative humidity; 50%±1%) and free approach to food and water. The animal experiments were performed according to the direction approved by the Institutional Animal Care and Use Committee (IACUC) of CHA Bundang Medical Center (IACUC 200141). At the beginning of the surgery, the peritoneal site was sterilized with 70% alcohol. Afterward, rats were thoroughly anesthetized with a general anesthesia mixture of Zoletil® (50 mg/kg Virbac Laboratories, France) and Rompun® (10 mg/kg, Bayer, Korea) injected intraperitoneally. […]
Immunohistochemistry: After six weeks of implantation, rats were euthanized via excess carbon dioxide inhalation and coccygeal discs were collected, and immunohistochemical analysis was performed for aggrecan (disc matrix component), collagen type II (a component of disc NP matrix), CGRP (pain-marker), Iba1 (pan-macrophage), CD86 (M1-macrophage) and CD163(M2-macrophage). […] The sections were mounted and finally examined using a fluorescence microscope (Zeiss 880, Germany and Leica SP5, Germany). The percentage of the positive area and cell number relative to DAPI was calculated by using ImageJ Software.

B1: GDF-5 alone: growth differentiation factor 5 (Peprotech, Catalog No. 120-01), given as saline solution (protein, UniProt P43026 382-501, looked up)
Growth/differentiation factor …: APLATRQGKRPSKNLKARCSRKALHVNFKDMGWDDWIIAPLEYEAFHCEGLCEFPLRSHLEPTNHAVIQTLMNSMDPESTPPTCCVPTRLSPISILFIDSANNVVYKQYEDMVVESCGCR
- aggrecan expression (IHC): decreased aggrecan expression
